Test results taken from patent publication US20050113284A1, “Drug for regenerating tissue and vessel and method therefor” (priority 2001, published 2005).

Experiments:
[1] = target: T1, HGF receptor c-Met β chain (Homo sapiens, UniProt P08581); assay: Yeast two-hybrid binding of MERMUC bait proteins to c-Met prey (C-terminal 91 amino acids); conditions: prey clone No. 3-309 (C-terminal 91 amino acids of human c-Met)
T1 construct: expressed in transfected cells; host or cells: yeast AH109 strain (library prey plasmid, human kidney cDNA library, CLONTECH)
Protocol: The present examination was performed using the previously reported yeast two-hybrid system (references are described above) according to conventional method and the experimental protocols provided with the reagents. […]
The binding ability of MERMUC bait protein derived from each of the bait vectors to the HGF receptor c-Met β chain was analyzed by the yeast two-hybrid system described above. […]
Each of the bait vectors was cointroduced into yeast AH109 strain with human HGF receptor c-Met prey vector (comprising DNA encoding the C-terminal 91 amino acids of the c-Met; Example 1). The binding ability of each of the bait proteins (randomly selected 10 amino acids of the human MERMUC C-terminal region) to the C-terminal region of human c-Met β chain was analyzed by the yeast two-hybrid system similar to the aforementioned Example.

[2] = test system: binding of MERMUC and HGF receptor c-Met; assay: Suppression of MERMUC binding to HGF receptor c-Met by MERMUC cytoplasmic region peptides (β-gal activity, CHO-K1 cells); format: cell-based, human
MAP kinase (Erk) = assay: Recovery of HGF-induced MAP kinase activation in MERMUC/293 cells (Western blotting); format: cell-based, human; conditions: MERMUC expressing MERMUC/293 cells transfected with del-4 expression vector vs mock
Protocol: The del-4 protein expression vector produced above was added to Tet-Off/MERMUC expressing recombinant cells (MERMUC/293 cells) (produced in Example 2) and cultured at 37° C. for 48 hr for transfection using GeneJammer Transfection Reagent (STRATAGENE) according to the accompanying protocol.
Cells were similarly transfected with pcDNA3 vector [mock] that lack the cDNA encoding del-4 instead of the del-4 expression vector as a control.
The cells were stimulated with human recombinant HGF (CALBIOCHEM), and cell lysate was prepared according to conventional method immediately after the stimulation to evaluate the activation level of MAP kinase (also referred to as Erk).
The cell lysate was separated by SDS-PAGE, and then subjected to Western blotting according to conventional method using anti-phosphorylated MAP kinase polyclonal antibody (Phospho-p44/42 MAP kinase (Thr202/Thr204) antibody; Cell Signaling Technology) to determine the MAP kinase activation level based on the obtained signal intensity.

MERMUC self-association [3] = target: T2, MERMUC self-association (Homo sapiens, UniProt Q8N307, D493H/DEL182-352/L354P/R136E/T442I); assay: Suppression of MERMUC self-association by MERMUC cytoplasmic region peptides (β-gal activity, CHO-K1 cells); format: cell-based; conditions: various concentrations of del-4; FIG. 18
T2 construct: human MERMUC (full-length; full)/β-galΔα; β-galΔω (E. coli β-galactosidase residues 1-789); β-galΔα (E. coli β-galactosidase lacking residues 12-42); expressed in transfected cells; host or cells: CHO cells (A5); CHO-K1 cells (A6); pcDNA3 vectors
T2 sequence (Q8N307 with tags, fused parts or gaps R136E/DEL182-352/L354P/T442I/D493H limits assumed): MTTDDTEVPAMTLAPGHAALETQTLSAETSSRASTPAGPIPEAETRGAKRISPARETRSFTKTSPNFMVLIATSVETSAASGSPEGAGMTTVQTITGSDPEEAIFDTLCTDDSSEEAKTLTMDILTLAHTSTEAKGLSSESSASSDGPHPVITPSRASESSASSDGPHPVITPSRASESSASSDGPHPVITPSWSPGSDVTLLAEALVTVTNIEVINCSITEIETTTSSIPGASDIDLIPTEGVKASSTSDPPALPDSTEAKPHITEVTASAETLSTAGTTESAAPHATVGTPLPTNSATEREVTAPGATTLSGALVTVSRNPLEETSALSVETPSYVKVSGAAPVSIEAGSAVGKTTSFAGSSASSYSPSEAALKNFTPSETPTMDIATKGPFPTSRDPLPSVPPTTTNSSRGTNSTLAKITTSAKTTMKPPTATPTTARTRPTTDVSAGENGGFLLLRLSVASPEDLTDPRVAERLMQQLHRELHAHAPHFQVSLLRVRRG
Text: (§1) To validate this prediction and at the same time synthesize a MERMUCMERMUC peptide that is able to suppress MERMUC self-association through the binding to the MERMUC self-association region, the following 4 types of peptides each corresponding to a part of MERMUC cytoplasmic region were synthesized by the method described later: • del-1: amino acid sequence from amino acids 244 to 345 of SEQ ID NO: 10; • del-2: amino acid sequence from amino acids 244 to 380 of SEQ ID NO: 10; • del-3: amino acid sequence from amino acids 244 to 415 of SEQ ID NO: 10; and • del-4: amino acid sequence from amino acids 244 to 450 of SEQ ID NO: 10.
(§2) Each of the cDNA obtained by PCR was digested with HindIII and XhoI and inserted into the HindIII/XhoI site of pcDNA3 vector to obtain an expression vector expressing each of the human MERMUC cytoplasmic region fragments (del-1 to del-4). […]
(§3) Intracellular β-Galactosidase activity of the recombinant cells was measured using Gal-Screen System (Applied Biosystems) according to the accompanying protocol 48 hr after plasmid transfection. […]

MERMUC self-association [4] = target: T3, MERMUC self-association (Homo sapiens, UniProt Q8N307); assay: as above; format: cell-based; conditions: compared among del-1 to del-4; FIG. 16
T3 construct: human MERMUC (full-length; full)/β-galΔα; β-galΔω (E. coli β-galactosidase residues 1-789); β-galΔα (E. coli β-galactosidase lacking residues 12-42); expressed in transfected cells; host or cells: CHO cells (A5); CHO-K1 cells (A6); pcDNA3 vectors
T3 sequence (Q8N307 with tags, fused parts or gaps R136E/DEL182-352/L354P/T442I/D493H limits assumed): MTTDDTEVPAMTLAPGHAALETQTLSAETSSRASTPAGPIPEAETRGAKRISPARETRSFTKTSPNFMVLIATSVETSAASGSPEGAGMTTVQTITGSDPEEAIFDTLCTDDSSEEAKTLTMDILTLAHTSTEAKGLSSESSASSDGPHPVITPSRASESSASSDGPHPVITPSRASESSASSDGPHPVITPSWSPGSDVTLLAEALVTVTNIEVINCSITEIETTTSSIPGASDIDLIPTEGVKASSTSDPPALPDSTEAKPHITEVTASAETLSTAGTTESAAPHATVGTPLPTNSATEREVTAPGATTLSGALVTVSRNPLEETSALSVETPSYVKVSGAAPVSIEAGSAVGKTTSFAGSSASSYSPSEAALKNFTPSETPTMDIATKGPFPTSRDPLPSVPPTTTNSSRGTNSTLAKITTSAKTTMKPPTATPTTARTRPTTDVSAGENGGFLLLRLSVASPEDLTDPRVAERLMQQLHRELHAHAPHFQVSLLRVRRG
Text: as §1, §2, §3

T1 sequence (P08581 1300-1390): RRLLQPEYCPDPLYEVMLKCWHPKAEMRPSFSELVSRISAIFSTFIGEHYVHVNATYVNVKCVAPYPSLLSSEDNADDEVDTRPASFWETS

Molecule | binding activity to the HGF receptor c-Met β chain [1] | decrease in the binding of MERMUC and HGF receptor c-Met ([2]; compared among del-1 to del-4, FIG. 17) | suppression of the binding of MERMUC and HGF receptor c-Met, dose dependence ([2]; various concentrations of del-4, FIG. 18) | phosphorylated MAP kinase level after HGF stimulation (MAP kinase (Erk)) | suppression of MERMUC self-association, dose dependence (MERMUC self-association [3]) | suppression of MERMUC self-association (MERMUC self-association [4])
C260: MERMUC bait protein, C-terminal 260 amino acids of cytoplasmic region; amino acids 244-503 of SEQ ID NO: 10 (protein, listed as Homo sapiens) VKASSTSDPPALPDSTEAKPHITEVTASAETLSTAGTTESAAPHATVGTPLPTNSATEREVTAPGATTLSGALVTVSRNPLEETSALSVETPSYVKVSGAAPVSIEAGSAVGKTTSFAGSSASSYSPSEAALKNFTPSETPTMDIATKGPFPTSRDPLPSVPPTTTNSSRGTNSTLAKITTSAKTTMKPPTATPTTARTRPTTDVSAGENGGFLLLRLSVASPEDLTDPRVAERLMQQLHRELHAHAPHFQVSLLRVRRG | possessed the binding activity | – | – | – | – | –
C260AC53: MERMUC bait protein, 53 amino acids deleted from the C-terminus of C260; amino acids 244-450 of SEQ ID NO: 10 (protein, listed as Homo sapiens) VKASSTSDPPALPDSTEAKPHITEVTASAETLSTAGTTESAAPHATVGTPLPTNSATEREVTAPGATTLSGALVTVSRNPLEETSALSVETPSYVKVSGAAPVSIEAGSAVGKTTSFAGSSASSYSPSEAALKNFTPSETPTMDIATKGPFPTSRDPLPSVPPTTTNSSRGTNSTLAKITTSAKTTMKPPTATPTTARTRPTTDVSA | completely lost the binding activity | – | – | – | – | –
del-4: MERMUC cytoplasmic region peptide, amino acids 244 to 450 of SEQ ID NO: 10 (protein, listed as Homo sapiens) VKASSTSDPPALPDSTEAKPHITEVTASAETLSTAGTTESAAPHATVGTPLPTNSATEREVTAPGATTLSGALVTVSRNPLEETSALSVETPSYVKVSGAAPVSIEAGSAVGKTTSFAGSSASSYSPSEAALKNFTPSETPTMDIATKGPFPTSRDPLPSVPPTTTNSSRGTNSTLAKITTSAKTTMKPPTATPTTARTRPTTDVSA | – | greatest decrease | increased in del-4 dosage-dependent manner | a significant level of phosphorylated MAP kinase was observed | increased in del-4 dosage-dependent manner | strongest suppression
